Laboratory results published in US7189515.

Biological target: T1, mature human interleukin-8 with C-terminal hexahistidine (human, UniProt P10145 21-99, biotin-XX (NHS ester labelling) in the affinity determination of Example 21; unlabelled in Examples 27 and 34)
T1 construct: mature; also called IL-8; IL8
T1 sequence: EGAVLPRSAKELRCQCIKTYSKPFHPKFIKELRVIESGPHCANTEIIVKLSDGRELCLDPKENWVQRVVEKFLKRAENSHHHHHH
Test: BIACORE two-site assay, blank-subtracted; IL-8 held by primary antibody (competitor) M1-10
Protocol: A BIACORE® 3000 instrument (Biacore AB, Uppsala, Sweden) was used to measure the epitope binding.
Each antibody was diluted to 100 µg/mL and the IL-8 was diluted to 1 µM in 10 mM N-2-hydroxyethylpiperazine-N'-2-ethane-sulfonic acid, 150 mM sodium chloride, 3 mM EDTA, 0.005% polysorbate 20, pH 7.4 (HBS-EP, Biacore AB, Uppsala, Sweden). […] IL-8 (10 µL) was then bound to the primary antibody in all 4 channels. One secondary antibody (10 µL) was passed through one channel each. The resonance units of the secondary antibodies were measured 20 seconds after the injection was over. Blank resonance unit values for each primary/secondary antibody combination were obtained by injecting HBS-EP instead of IL-8 and these were subtracted from the resonance units measured for the corresponding primary/secondary antibody pairing that was contacted with IL-8. Blocking antibody injections were not done.

B1: M1-10 (Fab)
heavy: QVQLVQSGGGLVHPGGSLRLSCEGSGFIFRNHPIHWVRQAPGKGLEWVSVSGIGGDTYYADSVKGRFSISRDNAKNSLYLQMNSLRAEDMAVYYCAREYYYGSGSYRVDYYYYGMDVWGQGTTVTVSSASTKGPSVFPLAPSSKSTSGGTAALGCLVKDYFPEPVTVSWNSGALTSGVHTFPAVLQSSGLYSLSSVVTVPSSSLGTQTYICNVNHKPSNTKVDKKAEPKSHHHHHH
light: not shown
notes: also called monoclonal human antibody M1-10; M1_10H
- Resonance Units: -17 RU

B2: M1-21 (Fab)
heavy: QVQLVQSGGGVVQPGKSLRLSCAASGFTFSYYGMHWVRQVPGKGLEWVAAVWYDGSTTYSPDSVKGRFTISRDDSKNTLYLQMSSLRAEDTAVYYCARDRVGLFDYWGQGTLVTVSSASTKGPSVFPLAPSSKSTSGGTAALGCLVKDYFPEPVTVSWNSGALTSGVHTFPAVLQSSGLYSLSSVVTVPSSSLGTQTYICNVNHKPSNTKVDKKAEPKSHHHHHH
light: not shown
notes: also called monoclonal antibody M1-21; M1_21H
- Resonance Units: 706 RU
